Reference: the supplement of paper PMC10567573

B1: ACSBG2 (parent)
chain: TPMTIPEFFRESVNRFGTYPALAS

Variants of: B1
Test: protein stability index of a GFP-peptide fusion (GPS, HEK-293T) (PSI 1-6); higher = more stable
Settings: c terminus: a fixed tail appended
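Further: lentivirally expressed fusions sorted by FACS into six bins by GFP to DsRed ratio, PSI derived from sequencing read proportions per bin multiplied by bin number.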

First: TPMTIPEFFRESVNRFGTYPCLAS
Second: TPMTIPEFFRESVNRFGTYPDLAS
The protein stability index of the first is lower: 1.88 for the first, 2.84 for the second.

Compared with TPMTIPEFFRESVNRFGTYPELAS, TPMTIPEFFRESVNRFGTYPFLAS is lower in protein stability index: 2.69 for the first, 1.65 for the second.

First: TPMTIPEFFRESVNRFGTYPGLAS
Second: TPMTIPEFFRESVNRFGTYPHLAS
The protein stability index of the first is higher: 2.47 for the first, 2.32 for the second.

Going from TPMTIPEFFRESVNRFGTYPILAS to TPMTIPEFFRESVNRFGTYPKLAS, the protein stability index rises from 2.23 to 2.87.

First: TPMTIPEFFRESVNRFGTYPLLAS
Second: TPMTIPEFFRESVNRFGTYPMLAS
The protein stability index of the first is lower: 1.77 for the first, 2.26 for the second.

Going from TPMTIPEFFRESVNRFGTYPNLAS to TPMTIPEFFRESVNRFGTYPPLAS, the protein stability index rises from 2.19 to 2.32.

Going from TPMTIPEFFRESVNRFGTYPQLAS to TPMTIPEFFRESVNRFGTYPRLAS, the protein stability index falls from 2.5 to 2.16.

Going from TPMTIPEFFRESVNRFGTYPSLAS to TPMTIPEFFRESVNRFGTYPTLAS, the protein stability index falls from 2.31 to 2.02.

First: TPMTIPEFFRESVNRFGTYPVLAS
Second: TPMTIPEFFRESVNRFGTYPWLAS
The protein stability index of the first is lower: 1.78 for the first, 2.53 for the second.

First: TPMTIPEFFRESVNRFGTYPYLAS
Second: TPMTIPEFFRESVNRFGTYPAAAS
The protein stability index of the first is lower: 2.17 for the first, 2.51 for the second.

Going from TPMTIPEFFRESVNRFGTYPACAS to TPMTIPEFFRESVNRFGTYPADAS, the protein stability index rises from 2.54 to 3.19.

Compared with TPMTIPEFFRESVNRFGTYPAEAS, TPMTIPEFFRESVNRFGTYPAFAS is lower in protein stability index: 3.37 for the first, 2.63 for the second.

Going from TPMTIPEFFRESVNRFGTYPAGAS to TPMTIPEFFRESVNRFGTYPAHAS, the protein stability index falls from 3 to 2.61.

First: TPMTIPEFFRESVNRFGTYPAIAS
Second: TPMTIPEFFRESVNRFGTYPAKAS
The protein stability index of the first is lower: 2.34 for the first, 3.08 for the second.

Compared with TPMTIPEFFRESVNRFGTYPAMAS, TPMTIPEFFRESVNRFGTYPANAS is higher in protein stability index: 1.88 for the first, 3.45 for the second.

First: TPMTIPEFFRESVNRFGTYPAPAS
Second: TPMTIPEFFRESVNRFGTYPAQAS
The protein stability index of the first is higher: 2.63 for the first, 2.5 for the second.

Going from TPMTIPEFFRESVNRFGTYPARAS to TPMTIPEFFRESVNRFGTYPASAS, the protein stability index falls from 3.12 to 3.04.

First: TPMTIPEFFRESVNRFGTYPATAS
Second: TPMTIPEFFRESVNRFGTYPAVAS
The protein stability index of the first is higher: 2.88 for the first, 2.02 for the second.

Going from TPMTIPEFFRESVNRFGTYPAWAS to TPMTIPEFFRESVNRFGTYPAYAS, the protein stability index falls from 2.57 to 1.93.

Compared with TPMTIPEFFRESVNRFGTYPALCS, TPMTIPEFFRESVNRFGTYPALDS is higher in protein stability index: 1.77 for the first, 2.88 for the second.

Going from TPMTIPEFFRESVNRFGTYPALES to TPMTIPEFFRESVNRFGTYPALFS, the protein stability index falls from 2.61 to 1.67.

First: TPMTIPEFFRESVNRFGTYPALGS
Second: TPMTIPEFFRESVNRFGTYPALHS
The protein stability index of the first is lower: 2.2 for the first, 2.43 for the second.

First: TPMTIPEFFRESVNRFGTYPALIS
Second: TPMTIPEFFRESVNRFGTYPALKS
The protein stability index of the first is lower: 2.37 for the first, 2.71 for the second.

Going from TPMTIPEFFRESVNRFGTYPALLS to TPMTIPEFFRESVNRFGTYPALMS, the protein stability index falls from 2.19 to 1.97.

Going from TPMTIPEFFRESVNRFGTYPALNS to TPMTIPEFFRESVNRFGTYPALPS, the protein stability index falls from 2.5 to 2.2.

Compared with TPMTIPEFFRESVNRFGTYPALQS, TPMTIPEFFRESVNRFGTYPALRS is lower in protein stability index: 2.69 for the first, 2.56 for the second.

First: TPMTIPEFFRESVNRFGTYPALSS
Second: TPMTIPEFFRESVNRFGTYPALTS
The protein stability index of the first is higher: 2.56 for the first, 2.33 for the second.

Going from TPMTIPEFFRESVNRFGTYPALVS to TPMTIPEFFRESVNRFGTYPALWS, the protein stability index rises from 1.66 to 2.55.

Going from TPMTIPEFFRESVNRFGTYPALYS to TPMTIPEFFRESVNRFGTYPALAA, the protein stability index rises from 1.82 to 2.06.

Going from TPMTIPEFFRESVNRFGTYPALAC to TPMTIPEFFRESVNRFGTYPALAD, the protein stability index rises from 2.03 to 2.87.

Going from TPMTIPEFFRESVNRFGTYPALAE to TPMTIPEFFRESVNRFGTYPALAF, the protein stability index falls from 2.83 to 1.58.

Compared with TPMTIPEFFRESVNRFGTYPALAG, TPMTIPEFFRESVNRFGTYPALAH is lower in protein stability index: 2.18 for the first, 1.93 for the second.

Compared with TPMTIPEFFRESVNRFGTYPALAI, TPMTIPEFFRESVNRFGTYPALAK is higher in protein stability index: 1.48 for the first, 2.45 for the second.

Going from TPMTIPEFFRESVNRFGTYPALAL to TPMTIPEFFRESVNRFGTYPALAM, the protein stability index rises from 2.04 to 2.67.

First: TPMTIPEFFRESVNRFGTYPALAN
Second: TPMTIPEFFRESVNRFGTYPALAP
The protein stability index of the first is higher: 2.64 for the first, 2.52 for the second.

First: TPMTIPEFFRESVNRFGTYPALAQ
Second: TPMTIPEFFRESVNRFGTYPALAR
The protein stability index of the first is lower: 2.08 for the first, 2.96 for the second.

Going from TPMTIPEFFRESVNRFGTYPALAT to TPMTIPEFFRESVNRFGTYPALAV, the protein stability index falls from 2.07 to 1.37.

First: TPMTIPEFFRESVNRFGTYPALAW
Second: TPMTIPEFFRESVNRFGTYPALAY
The protein stability index of the first is lower: 1.66 for the first, 1.76 for the second.
